Our source for the response values is article PMC7160566.

To fix the notation:
B1: LexA_(DBDwt)-SehB-WT [Salmonella enterica serotype Typhimurium] / itself (parent)
chain: MRTHRQMDATSAKKIVDTFSDAVKTVPLMGEDRNDNEYRRALALVEFLVDHDDLENPLFELLCARISEYEKHAPEFKALNQHLEKTPPGVSVLRTLMDQYGLKAADLANELGSKSNVSNILNGRRALTVNHIKALTQRFKLPADAFIE
B2: LexA_(DBDwt)-SehB-WT [Salmonella enterica serotype Typhimurium] / LexA_(DBDmut)-SehA [Salmonella enterica serotype Typhimurium] (parent)
chain 1: B1 chain
chain 2: MHVISRKPFNEAMLMYPNHELALTELLNVLEKKTFTQPEEMKRYIPSLDNFKYRDKWWVIDVSGNSLRLISYIDFRLHKIFVKHIVSHAEYDKLTAYYRGNKE

In the first assay the parent is B1. Briefly: LexA-based genetic system for homodimerization (sulA-lacZ reporter, E. coli SU101). To be noted: with itself; LB broth at 37°C to an OD600 nm of 1.0; 1 mM IPTG; parent: 130; read off a plot.
chain 1 I66A: the response stood at 680 U/mg.
Still for that read-out and setting: the result for chain 1 F146A reads 110 U/mg; that for chain 1 L58A, 650 U/mg.
Turning to chain 1 L127A, the response worked out at 170 U/mg.
On the same count and under the same terms, the result for chain 1 L135A reads 130 U/mg; that for chain 1 Y38A, 600 U/mg.
On the same count and under the same terms, the result for chain 1 L48A reads 770 U/mg.
Still for that read-out and setting: the result for chain 1 S113A reads 110 U/mg.

Variants of B2 are the subject of a further assay. Briefly: LexA-based genetic system for heterodimerization (sulA-lacZ reporter, E. coli SU202). To be noted: with LexA_(DBDmut)-SehA [Salmonella enterica serotype Typhimurium]; LB broth at 37°C to an OD600 nm of 1.0; 1 mM IPTG; parent: 750; read off a plot.
chain 1 L135A: the response was determined as 720 U/mg.
On the same count and under the same terms, next, chain 1 L127A: 770 U/mg; chain 1 L58A: 820 U/mg; chain 1 F146A: 780 U/mg.
On the same count and under the same terms, next, chain 1 I66A: 630 U/mg; chain 1 Y38A: 1100 U/mg.
As for chain 1 S113A, the response came out at 760 U/mg.
The same measure, in the same setting: next, chain 1 L48A: 940 U/mg.
